Sequences and labels used below:
B1: GST-Snf1-C1 (a.a. 392–518) (domain or fragment, S. cerevisiae, UniProt P06782 392-518, looked up)
chain: LIKDMKANKSVSDELDTFLSQSPPTFQQQSKSHQKSQVDHETAKQHARRMASAITQQRTYHQSPFMDQYKEEDSTVSILPTSLPQIHRANMLAQGSPAASKISPLVTKKSKTRWHFGIRSRSYPLDV
notes: Snf1p, S. cerevisiae, a.a; Vector pGEX4T-1; source: E. coli BL21 (DE3), purified (glutathione-Sepharose 4B)
B2: His-Arf3^T31N (natural protein, S. cerevisiae, UniProt P40994 1-183, looked up)
chain: MGNSISKVLGKLFGSKEMKILMLGLDKAGKNTILYKLKLNKIKTSTPTVGFNVETVTYKNVKFNMWDVGGQQRLRPLWRHYFPATTALIFVIDSSARNRMEEAKEELYSIIGEKEMENVVLLVWANKQDLKDAMKPQEVSDFLELEKNLKNQPWCVIGSNALSGQGLVEGLSWISNNTNVPKK
notes: Arf3p, S. cerevisiae; T31N; plasmid pET32a-ARF3 (T31N); pET32a usually adds thioredoxin, His and S tags before the insert

The test “His-Arf3^T31N” has as its target B2. Briefly: pull-down; GST fusions on glutathione-Sepharose 4B beads, His-tagged protein in solution (His-Arf3 loaded with GDP or GTPγS); 50 mM Tris-HCl pH 7.5, 150 mM NaCl, 1% Triton X-100, 1 mM DTT, 10 mM MgCl2; 1 h, 4 °C; anti-His blot. The conditions noted are these: both partners purified.
Test [1] concerns the target T1, GST-Snf1-C (a.a. 311–633) (S. cerevisiae, UniProt P06782 311-633).
T1 construct: Snf1p, S. cerevisiae, C-terminal regulatory domain, a.a; 311–633; Vector pGEX4T-1; also called C-terminal regulatory domain of Snf1p; source: E. coli BL21 (DE3), purified (glutathione-Sepharose 4B)
T1 sequence (looked up): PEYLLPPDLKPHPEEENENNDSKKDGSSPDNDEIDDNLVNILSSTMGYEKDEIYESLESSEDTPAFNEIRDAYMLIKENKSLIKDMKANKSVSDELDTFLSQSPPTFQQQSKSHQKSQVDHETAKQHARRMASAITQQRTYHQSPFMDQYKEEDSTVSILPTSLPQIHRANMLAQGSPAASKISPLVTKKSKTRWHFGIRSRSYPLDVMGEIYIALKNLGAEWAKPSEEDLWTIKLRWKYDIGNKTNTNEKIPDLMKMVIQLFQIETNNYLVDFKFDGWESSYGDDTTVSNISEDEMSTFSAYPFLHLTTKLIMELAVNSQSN
The test is described as above. As to conditions: both partners purified.

We go through two molecules from article PMC4525183, “Snf1/AMP-activated protein kinase activates Arf3p to promote invasive yeast growth via a non-canonical GEF domain” (Nature Communications, 2015).

As for B1, the binding result in the test with His-Arf3^T31N is listed as “binds”.
Turning to B2, the binding result in test [1] is recorded as “binds”.
